# Laboratory results: the nanobody polyreactivity screen of Harvey et al. (2022)
# Assay: yeast display, Sf9 membrane polyspecificity reagent, FACS + sequencing; frameworks hold sequencing errors
# Summary of the method: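 A nanobody's polyreactivity label depends on the gate it was sorted from. Yeast display cells were stained with 10% biotinylated, detergent-solubilized Sf9 membrane reagent for 1 hour at 4 °C, enriched on streptavidin microbeads and sorted by FACS. The low and high (top ~1%) gates were set on anti-HA fluorescence for expression and streptavidin fluorescence for reagent binding.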
row,Sequence,polyreactivity (PSR sort gate)
1,QVQLVESGGGIVQAGGSLRLSSAASGNKFSLNGMGWYRQAPGKEREFVAAITWSVGSRYYADSVKGRLTISRDNAKHTVYLPMNILKPEDTAVYYCAATVSDLYKIEYYYWGQGTQVSVSS,low polyreactivity
2,QVQLVESGGGLVQAGGSLRLSCAASGSIFGGYALGWYRQAPGKERELVAAISKTGGTTYYADSVKGRFTISRDNALNTVYLQMNSLKPEDTAVYYWNAPKRYYGSAYGYGYWGQGTQVTVSS,high polyreactivity
3,QVQLVESGGGLVQAGGSLRLSCAASGSTFVYYAMGWYRQAPGKERELVARITRGGGSTNYADSLKARFTISRDNAKNTVYLHMNSLKPEDTAVYYCAKRRKVTYDYWGQGTQVSVSS,high polyreactivity
4,QVQLVESGGGLVQAGGSLRLSCAASGRTFGAYAMGWYRQAPGKERELVAAIDSGGITYYADSVKGRFTISRDNAKNTVYLQMNSLKPEDTAVYYCAADHRVVTFYEGDYWGQGTQVTVSS,low polyreactivity
5,QVQLVESGGGLVQAGGSLRLSCAASGSTFYYYAMGWYRQAPGKERELVAAIRLIGGTTYYADSVKGRFTISRDNAKNTVYLQMNSLKPEDTAVYYCNARYSTGYTSPSYWGVYKHYDSWGQGTQVTVSS,low polyreactivity
6,QVQLVESGGGLVQAGGSLRLSCAASGLIFWHYAMGWYRQAPGKERELVARISYGGGSTYYADSVKGRFTISRDNAKNTVYLQMNSLKPEDTAVYYCNAKYYSVSQYWYNYWGQGTQVTVSS,high polyreactivity
7,QVQLVESGGGLVQAGGSLRLSCAASGSIFDYNTMGWYSQAPGKERELVAAISSGGSTYYADSVKGRFTISRDNAKTTVYLQMKSLKPEDTAVYYCAARRAGWWGFYYWGQGTQVTVSS,high polyreactivity
8,QVQLVESGGGLVQAGGSLRLSCAASGFTFTSFAMGWYRQAPGKERELVAAISARGGRTNYADSVKGRFTISRDNAKNTVYLQKNSLKPEDTAVYYCAADGFRAAYLYDYWGQGTQVTVSS,high polyreactivity
9,QVQLVESGGGLVQAGGSLRLTCAASGSIFEPYTKGWYRQAPAKERELVAAITGSGGSTFYADSVKARFTISRDNAKNTVYLQMNSLKPEDTAVYYCNANAYPYTDVDYWGQGTQVTVSS,low polyreactivity
10,QVQLVESGGGLVQEGGSLRLSCAASVRIFSDYAMGWYIQAPGKERELVATITSGDSTNYADSVKGRFTISRDNAKNTVYLQMNSLKPEDNAVYYFNADRFADYDYWGQGTQVTVSS,low polyreactivity
11,QVQLVESGGGVVQARGSLRLSCAASGSTFDVNAMGWYRQAPWKDRELVAAISWNSGTTYYADSVKGRFTISRDNAKNSVYLQMNSLKPEDTAVYYCAASYGTGRRSKYGYWGQGTQVTVSS,high polyreactivity
12,QVQLVESGGGLVQAGGSLRLSCAASGYTFPRYTMGRYRQAPGKERELVAVIRRSGGTHYADSVKGRFTISRDNAKNTVYLLMYSLNPVDIAVYYCAVVSLLQNIPYGFWGQGTQVTVSS,high polyreactivity
13,QVQLVESGGGLVQAGGSLRLSCAASGSTFYNYAMGWYRQAPGKERELVAAITSSGDRTYYADSVKGRFTISRDNAKNTVYLQMNSLKPEDTAVYYCATRRYFRYEYWGQGTQVTVSS,low polyreactivity
14,QVQLVESGGGLVQAGGSLRLSCAASGRIFPYYAMGWYRQAPGKERELVATISTAGSTNYADSVKGRFTISRDNAKNTVYLQMNSMKPEDTAVYYCATRNTWYHRGYDFWGLGTQVTVSS,low polyreactivity
15,QVQLVESGGALVQAGGSLRLSCAASGITFARNAMGWYRQAPGKERELVAVISTRGGRTYYADSVKGRFTISRDNAKNTVYLQMNSLKPEDTAVYYCAASPDPYWRRMDYWGQGTQVTVSS,high polyreactivity
16,QVQLVESGGGLVQAGGSLRLSCAASGGNFVSYAMGWYRQAPGKERDLVARINSVDGTNYADSVKGRFTISRDNAKNTVYLQMNSLKPEDTAVYYCATGGYYSAIVYGGYDYWGQGTQVTVSS,low polyreactivity
17,QVQLLESGGGLVQAGGSLRLSCAASGSIFRYNDMGWYRKAPGKETELVATITSGTNTYYADSVKGRFTISRDNAQNTVYLQMNRLKPEDTAVYYCAKSYNAWDGRTFEEMNYWGQGTQVTVSS,low polyreactivity
18,QVQLVESGGGLVQAGGSLRLSCAASGIIFNSNAMGWYRQAPGKERELVAAISVSGGSTYYADSVKGRFTISRDNAKNTVYLQMNSLKPEDTAVYYCAAVFYYWSLRSYYWGQGTQVTVSS,high polyreactivity
19,QVQLVESGGGLVQAGGSLRLSCAASGFTFANYAMGWYRQAPGKERELVASITRSGGSTYYADSVKGRFTISRDNAKNTVYLQMNSLKPEDTAVYYCAKDRRRWYYTRDYWGQGTQVTVSS,low polyreactivity
20,QVQLVESGGGLVQAGGSLRLSCAASGSIFPYAMGWYRQSPGKERELVAAITRSGASTYYADSVKGRFTISRDNAKNTVYLQMNSLKPEDTAVYYCAAYALRGVRYPYRVDFYYWGQGTQVTVSS,high polyreactivity
21,QVQLVESGGGLVQAGGSLRLSCAASGRIFVYNAMGWYRQAPGKERELVATISSGGSTNYADSVKGRFTISRDNAKNTVYLQMNSLKPEDTAVYYCAARFYVSNSRISARNYWGQGTQVTVSS,high polyreactivity

row,Sequence,polyreactivity (PSR sort gate)
1,QVQLVESGGGLVQAGGSLRLTCAASGLTFRSYTMRWYRQAPGTERELVAAITFRGGSTYYADSLKGRFTISRDNAKNTVYLQMNSLKPEDTAVYYSAAVAIRRSVPVPRFDYWGQGTQVTVSS,high polyreactivity
2,QVQLVESGGGLVQAGGSLRLSCAASGRIITTYAMGRYRQAPGKERELVAPITSDGRTYYADSVKVRFTISRDNATHSVYLQMYSMKPEDTAVYYCNAAGRYAFPFGYNYWGQGTQVTVSS,high polyreactivity
3,QVQLVESGGGLVQAGGSLRLSCAAWSIFYLNAMGWNRQAPGKERELDAAISSAGSTYYADSVKGRFTISRDNAKNTFYLQMNSLKPEDTAVYYCAAYWYDSPGVTEIWYDYWGQGTQVTVSS,low polyreactivity
4,QVQLVESGGGLVQAGGSLRLSSAASGNTFDSKAMGWYRQAPGKERELVAGISQGDGSTYADSVKGRFTISRDNAKNTVYFQMNSLKPEDTAVYYCAADRDYIMDYWGQGTQVTVSS,high polyreactivity
5,QVQLVESGGGLVQAGGSLRLSCAASGRTFRTNAMGWYRQAPGKERELVAAISTGGGIANYADSVKGRCTISRDNAKNTVYLQMNSLKPEDTAVYYCNADIYTWFQIGGYQYDYWGQGTQVTVSS,low polyreactivity
6,QVQLVESGGGLVQAGGSLRLSCAASGLTILDNAMGWYRQAPGKERELVATISGGGSTYYADSVKGRFTISRDNAKNTVYLQMNSLKPEDTAVYYWNAAYVGGPWWYRYTYNYWGQGTQVTVSS,low polyreactivity
7,QVQLVESGGGLVQAGGTLRLSCAASRITFWYYARGWYIQAPGKERELVAAITSGGSTYYADSVKGRFTISRDNAKNTVYLQMNSLKPEDTAVYYCAKDSVWGAKNLTSYKYYYWGQGTQVTGSS,low polyreactivity
8,QVQLVESGGGLVQAGGSLRLSCAAAGSTFHRYVMGWYRQAPGQERELVAVINSTGGSTYYADSVKGRFTISRDNAKNTVYLQMKCLKPEDTAVYYCARVTRRGPGYSTLFSRYDYWGQGTQVTVSS,low polyreactivity
9,QVQLVESGGGLVQAGGSLRLSCAASGSIFGDNAMGWYRQAPGKERELVAAINYNGGRTYYADSVKGRFTISRDNAKNTVYLQMNSLKPEDTAVYYCAKDNYQAPVQQYPFDYWGQGTQVTVSS,low polyreactivity
10,QVQLVESGGGLVQAGGSLRLSCAASGFIFLRYGMGWYRQAPGKERELVASIDSTGGSTYADSVKGRFTISRDNAKNTVYLQMNSLKPEDTAVYYCAAAYYIVSQRDYWGQGTQVTVSS,low polyreactivity
11,QVQLGESGGGLVQAGGSLRLSCAASGSIFGGNAMGWYRQAPGKERELVAAISTSGSTTYYADSVKGRFTISRDNAKNTVYLQMNSLKPEDTAVYYCARRGGVRGYYGGRRSKMDYWGQGTQVTVSS,low polyreactivity
12,QVQLVESGGGLVQAGGSRRLSCAASGRIICVYAMGWYRQAPGNERDLVAAITIGGSTYYADSVKGRFTISRDNAMNTFYLQMNSLKPEDTAVYYCNRRYNWYLHHYDYWGQGTQVTVSS,high polyreactivity
13,QVQLEDSGGGLVQAGGSLRLSCAASGGTFRYNSMGWYRPAPGKERELVAGITWGGGSTYYADSVKGRFTISRDYAKNSVYLQMNSLKPEDTAVYYCNAVRPRQWWTHYGYWGQGTQVTVSS,high polyreactivity
14,QVQLVESGGGLVQAGGSLRLSCAASGFTFVPYAMGWYRQAPGKEREFVATISWSAGRTYYADSVKGRFTISRDNAKNTVYLQMNSLKPEDTAVYYCNARQWCQRYSKVRYDFWGQGTQVTVSS,high polyreactivity
15,QVQLEESGGGLVQAGGSLRLSCAASGSTFWLNAMGWYRQAPGKESELVASITWSGDSTYYADSVKGRFTISRDNAKNTVYLQMNSLKPEDTAVYYCNTDSILGQIWGATDDYWGQGTQVTVSS,low polyreactivity
16,QVQLVESGGGLVQAGGSLRLICAASGYTFKIKGMGWYRQAPGKERELVATIRAGGGNTYYADSVKGRFTISRDNAKNTVYLQMNSLKPEDTAVYYCNARYLRRTMEYWGQGTQVTVSS,high polyreactivity
17,QVQLVESGGGLVQAGGSLRLSCGASGRTFAIYVMGWYRQAPGKERELVAAISRGGSTYYADSVKGRFTISRDNAKNTVYLQMNSLKPEDTAVYYCAAGTGTTSRYYYWGQGTQVTVSS,high polyreactivity
18,QVQLVESGGGLVQAGGSLRLSCAASGSTFYVNDMGWYRQAPGKERELVAAIDWTGGTTYYADSVKGRFTISRDNAKNTVYLQMNSLKPEDTAVYYCAVDDSTVDYDYWGQGTQVTVSS,low polyreactivity
19,QVQLVESGGGLVQAGGSLRLSCAASGSTFRYAMGWYRQAPGKERELVATISSGGSTNYADSVKGRFTISRDNAKNTVYLQMNSLKPEDTAVYYCAADPYGGDNDKGDYWGQGTQVTVSS,low polyreactivity
20,QVQLVESGGGLLQAGGSLPLSCAASGFTFVPYAMGLYIQAPGKERELDAAISSRGDSTYYADSVKGRFTISRDNAKNTVYLQMIRLSPEDTAFYYCIARTTPHMDYWGQGTQVTVSS,low polyreactivity
